Data from the supplement of paper PMC9170038.

Legend:
MS2 coat protein [1] = assay: apparent KD of MS2 coat protein, switch ON state; designed switch direction (-1 OFF switch, 1 ON switch): -1; higher = weaker reporter binding; conditions: FMN input: 0 or 200 uM; Eterna round: R93 (includes R88 designs)
How it was run: (§1)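 Normalised binding curves from single clusters were fitted, and the median fit for each design is given as apparent KD. The clusters held designed RNA switches transcribed on-chip from Illumina sequencing clusters. These were titrated with SNAP-549-labelled MS2 coat protein (twofold steps from 0.7 or 1.5 nM to 3 µM, 0.8–1.5 h to 10–20 min per step) in 100 mM Tris-HCl pH 7.5, 80 mM KCl, 4 mM MgCl2, without or with constant ligand.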

MS2 coat protein [2] = assay: apparent KD of MS2 coat protein, switch OFF state (with FMN for OFF switches, without FMN for ON switches); designed switch direction (-1 OFF switch, 1 ON switch): -1; higher = weaker reporter binding; conditions: FMN input: 0 or 200 uM; Eterna round: R93 (includes R88 designs)
How it was run: as §1

Row | Sequence | apparent KD of MS2 coat protein (MS2 coat protein [1]) [nM] | apparent KD of MS2 coat protein (MS2 coat protein [2]) [nM]
1 | AGUUGGCGAGGAUAUACAUGAGGAUCACCCAUGUAAAAUAAUGAAAAAGUAGGGAAAAGUAGAAGGCGCUGACA [73%, Moding Norbert Elias, 19] | 36.2 | 96.7
2 | AGCUAGUGAGGAUAUACGAACAUGUCAACGGACUGUAAGGGACAUGAGGAUCACCCAUGUAGAAGGCACUAGCA [Diamond 57] | 67.2 | 165
3 | ACAGUUACAGGAUAUACAUGGGUGAAAAAAGUAUAUCCACUACAUGAGGAUCACCCAUGUAGAAGGGUAACUGA [Ex2 Design 174: Random 3] | 18.6 | 12.3
4 | GGCUAGUCAGGAUAUACGAACAUGUCAAAAGACGUGAAGGGACAUGAGGAUCACCCAUGUAGAAGGGACUAGCG [salish99-ex2-13] | 32.8 | 132
5 | AAAAAUGGAGGAUAUACAUGAGGAUCACCCAUGUGUGACUAUACUAUGUGCUCUUCAGGUAGAAGGCCAAAAAA [Gilly Gone Silly 19 - Jieux - Exclusion 3] | 44.3 | 249
6 | AAAAAACAUGAGGAUCACCCAUGUGAGGAUAUACAAAGAAAGACAGGCAAGUAAAGAGGUAGAAGGCGCAAAAA [Default title] | 15.4 | 18.2
7 | AAAAAUGGAGGAUAUACAUGAGGAUCACCCAUGUGAAACAAAACAAAACACAAAAAAAGUAGAAGGCCAAAAAA [Gilly Gone Silly 4 - Jieux - Exclusion 3] | 33.1 | 38.2
8 | AAAAAGAUAGGAUAUACGUACAUGUCAAAAGACGUGAAGGGACAUGAGGAUCACCCAUGUAGAAGGAUUAAAAA [JL Wide Open 40] | 31.6 | 20.1
9 | AAAAAACAUGAGGAUCACCCAUGUGAGGAUAUGUAAAAUAAAAUAAAAAUAAAGAAAAGCAGAAGGUAUAUGAA [Amethyst 65] | 20.4 | 23.2
10 | AGCUAGUCAGGAUAUACGAACAUGUCAAAAGACGUGAAGGGACAUGAGGAUCACCCAUGUAGAAGGGACUAGCU [salish99-Ex2-20] | 28.8 | 106
11 | AGCUAGUGAGGAUAUACGAACAUGUCAAAAGACGUGAAAAAACAUGAGGAUCACCCAUGUAGAAGGCACUAGCA [Mat - Exclusion 2 - JL-Eli mod - D56] | 19.2 | 16.9
12 | AAAAAACAUGAGGAUCACCCAUGUAAGGAUAUGCAAAAUAAAAGAAAUAAAAAGAAAAGCAGAAGGUACAUUAA [JL wbt mod 9] | 23.6 | 37.9
13 | AAAAAACAUGAGGAUCACCCAUGUGAGGAUAUGCAAAAAAAAAAAAAAAAAAAAAAAAGCAGAAGGCGCAAAAA [4 GC Strong] | 20.6 | 38.9
14 | AGCUAGCAAGGAUAUACGAACAUGUCAAAAGACGUGAAGGGACAUGAGGAUCACCCAUGUAGAAGGUGCUAGCA [JL 74% mod 8] | 36.6 | 127
15 | UCAGGUGGAGGAUAUACAGCUCGAUCCUGGAAUAAAACGGCACAUGAGGAUCACCCAUGUAGAAGGCCACAAAA [Texeussoat] | 18.9 | 55.1
16 | AAGUUGCUAGGAUAUACUUGGGCAACAAAUAAACUAAUAUAACAUGAGGAUCACCCAUGUAGAAGGAGCAGAAA [JR_Exc002_Sub206] | 31.8 | 34.9
17 | AAAAAACAUGAGGAUCACCCAUGUGAGGAUAUGACGUAAAUAAAGAAAGAAGAAAUCGUCAGAAGGCACAAAAA [55%, Disencluded 2, 6] | 42.3 | 41

Row | Sequence | apparent KD of MS2 coat protein (MS2 coat protein [1]) [nM] | apparent KD of MS2 coat protein (MS2 coat protein [2]) [nM]
18 | GACUAGUCAGGAUAUACGAACAUGUCAAAAGACGUGAAGGAACAUGAGGAUCACCCAUGUAGAAGGGACUAGCA [Diamond 19] | 25.2 | 17.7
19 | AAAAAACAUGAGGAUCACCCAUGUGAGGAUAUGCGAAAAUAAAAUAAAAUAAAUAAAAGCAGAAGGCACAAAAA [Mat - Exclusion 1 - Eli mod - D59] | 41.1 | 43.9
20 | CUCAUGUGAGGAUAUCAGUAGUAAAAAAAAAAAAUUACUACUGAGAAGGCACAUGAGGAUCACCCAUGUGCCUU [EX4 325: Super Stable 25] | 18.9 | 15.5
21 | AAGAAGUGAGGAUAUACAUGAGGAUCACCCAUGUAAAAGAAAGAAAAGGGAAAGAAAAGUAGAAGGCACAAGAA [Maatkare Hatshepsut] | 36.2 | 58.3
22 | AAGAAGAGAGGAUAUACAUGAGGAUCACCCAUGUAAAAGAAAGAAAAGGGAAAGAAAAGUAGAAGGCUCAAGAA [Aakheperrure Amenhotep II] | 26.4 | 38.3
23 | GAAAAGGUAGGAUAUACGAAAAAAAAGGGUAAAAUAAAUAAACAUGAGGAUCACCCAUGUAGAAGGACCAAAAG [Mat - Exclusion 2 - Tesla mod - D39] | 30.1 | 49.6
24 | AAAAAGUGAGGAUAUGGUAAAAAAAAAAAAAAAAAAAAAAUCCAGAAGGCACAUGAGGAUCACCCAUGUAAAAA [Jolly Cotton - Jieux - Exclusion 4] | 46.2 | 29.7
25 | AAAAAACAUGAGGAUCACCCAUGUGAGGAUAUGCAAAACCCAUAUAAAAAGGGAAAAAGCAGAAGGCACAAAAA [Starry Exclusion 1.3 (wbt round 1 mod)] | 22.8 | 55.8
26 | AAAAAACAUGAGGAUCACCCAUGUGAGGAUAUGAACGAAAAUAAAUAAAAAUAAAAGUUCAGAAGGUACGAAAA [66%, Wbt, 3] | 25.2 | 30.7
27 | AGCAAACAUGAGGAUCACCCAUGUCAGGAUAUGAACGAAAAUAAAUAAAAAUAAAAGUUCAGAAGGGACGAGCA [66%, Wbt, 25] | 43.2 | 50.1
28 | AAAACACAUGAGGAUCACCCAUGUGAGGAUAUCGUGCAGUAGACGAAAGUCUACUGCACGAGAAGGCACAAGGA [Tweaking Brourd] | 33 | 50.2
29 | AUAAUGAGAGGAUAUACAUGAGGAUCACCCAUGUAAUUAACACGGCGAGCACCAAUACGUAGAAGGCUCAUUUA [JR_Exc003+Sub602] | 22.4 | 49.9
30 | AAAUCAGUAGGAUAUACGAUUUGGUACUAGACCGAGGAACCACAUGAGGAUCACCCAUGUAGAAGGACUAGAUA [EX2 Malc#21] | 17.2 | 12.9
31 | AUUAUGUAAGGAUAUGAGUGAACAACAAAACAAAUAACGACUCAGAAGGUACAUGAGGAUCACCCAUGUAUAAA [May 70] | 28.9 | 21
32 | CAAAGGUGAGGAUAUACAUAACUAUGACGAAAGUCAUAAACACAUGAGGAUCACCCAUGUAGAAGGCACCACAA [e2] | 32.6 | 29.9
33 | AAAAAUGGAGGAUAUACAUGAGGAUCACCCAUGUUAGAACAAAAAAAAGGGAAAGAAAGUAGAAGGCCAUAAAA [Ex 3 May 25] | 34.7 | 49.1
34 | AACUGACAUGAGGAUCACCCAUGUCAGGAUAUGAUUUGACGAAAUAAAAUAAGUCAUAUCAGAAGGGACAUGGG [Design 83: Sub-opt VB] | 26.2 | 21.2
